Test [1] addresses KCTD12 H1 domain (residues 200–325) (human) (UniProt Q96CX2). In words: SEC. A general note: SEC sorts molecules by how far they enter the pores of the column.
The target in test [2] is KCTD16 BTB domain wild-type (residues 23–124), SMT3 tag cleaved with ULP1 (human, UniProt Q68DU8 23-124). Kind of test: pull-down.
Test [3] concerns the target His6-SMT3-tagged KCTD16 BTB domain (residues 23–124) (human, UniProt Q68DU8 23-124). Kind of test: pull-down.
The target of test [4] is KCTD12 32–325, His6-GST tag cleaved by 3C protease (human, UniProt Q96CX2 32-325). Kind of test: SEC.
The target of test [5] is KCTD16 21–279, His6-GST tag cleaved by 3C protease (human, UniProt Q68DU8 21-279). In words: SEC.
The target in test [6] is His6-GST-tagged KCTD12 32–325 (human, UniProt Q96CX2 32-325). Kind of test: pull-down.
Sequence of His6-GST-tagged KCTD12 32–325 (Q96CX2 32-325): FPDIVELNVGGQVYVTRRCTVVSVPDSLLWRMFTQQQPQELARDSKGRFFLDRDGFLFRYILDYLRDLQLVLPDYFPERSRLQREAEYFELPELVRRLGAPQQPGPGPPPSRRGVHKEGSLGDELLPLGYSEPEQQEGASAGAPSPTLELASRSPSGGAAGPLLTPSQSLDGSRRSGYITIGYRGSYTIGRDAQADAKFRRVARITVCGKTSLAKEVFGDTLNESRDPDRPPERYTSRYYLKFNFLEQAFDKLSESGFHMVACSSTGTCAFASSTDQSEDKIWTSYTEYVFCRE

Sequence of KCTD12 H1 domain (residues 200–325) (human) (Q96CX2 200-325): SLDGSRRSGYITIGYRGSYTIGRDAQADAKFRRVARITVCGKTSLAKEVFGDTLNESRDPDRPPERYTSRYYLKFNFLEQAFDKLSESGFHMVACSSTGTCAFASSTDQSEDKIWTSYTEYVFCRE
Sequence of KCTD16 21–279, His6-GST tag cleaved by 3C protease (Q68DU8 21-279): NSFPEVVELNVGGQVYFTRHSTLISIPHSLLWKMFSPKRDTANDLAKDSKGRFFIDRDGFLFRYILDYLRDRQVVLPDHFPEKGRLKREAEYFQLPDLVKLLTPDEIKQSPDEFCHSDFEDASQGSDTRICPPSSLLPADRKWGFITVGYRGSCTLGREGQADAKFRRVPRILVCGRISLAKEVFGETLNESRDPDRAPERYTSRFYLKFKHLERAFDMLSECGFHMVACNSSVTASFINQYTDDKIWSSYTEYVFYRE
Sequence of KCTD16 BTB domain wild-type (residues 23–124), SMT3 tag cleaved with ULP1 (Q68DU8 23-124): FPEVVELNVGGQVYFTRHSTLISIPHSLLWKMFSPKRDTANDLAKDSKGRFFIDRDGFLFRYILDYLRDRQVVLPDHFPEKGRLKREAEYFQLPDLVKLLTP
Sequence of His6-SMT3-tagged KCTD16 BTB domain (residues 23–124) (Q68DU8 23-124): as above
Sequence of KCTD12 32–325, His6-GST tag cleaved by 3C protease (Q96CX2 32-325): as the sequence (Q96CX2 32-325) above

In test [1], “Human Gβ1γ2 heterodimer (His6-Gβ1, Gγ2 C68S) (from UniProt P62873;P59768) (complex)” came in with a stoichiometry N (Gβγ per KCTD12H1 chain (5:5)) of 1.

Consider KDPIEDINSPEHIQRRLSLQLPILHHAYLPSIGGVDAS [His6-GST-tagged GABAB2 C-terminal fragment (residues 876–913)], for which the binding result in test [2] and in test [3] was “binds” throughout. Consider KDPIEDINSPEHIQRRLSLQLPILHHAYLPSIGGVDAS [GABAB2 876–913, His6-SUMO tag cleaved by 3C protease], for which the binding result in test [4] and in test [5] was “binds” each time.

Consider KDPIEDINSPEHIQRRLSLQLPILHHAYLPSIGGVDAS [His6-SUMO-tagged GABAB2 876–913], for which, in test [6], the binding result is “binds”.

(Values after publication PMC6405316 (Nature, 2019).)
